Measured values taken from patent US20060239990A1, “Protein Arginine N-Methyltransferase 2 (PRMT-2)” (priority 2003, published 2006).

Test system: HIV-1 LTR
Assay: HIV-1 reporter transcription, transient co-transfection
Type: cell-based, human
Experimental: Cell culture, transfection, and reporter gene assays. The E1A-transformed, human kidney cell line, 293, and NIH-3T3 cells were maintained in Dulbecco's Modified Eagle Medium (DMEM) supplemented with 10% fetal calf serum and penicillin-streptomycin at 37° C. in 5% carbon dioxide in tissue culture grade Petri dishes. PRMT-2−/− mouse embryo fibroblasts (MEFs) and wild type MEFs were prepared from day 13.5 embryos and maintained in DMEM supplemented with 10% fetal calf serum. MEFs at passage 4 were used in this experiment. Lipofectamine Plus™ reagent (Boehringer Mannheim) was used to transfect both 293 and NIH-3T3 cells according to directions from the manufacturer. […] TNF-α stimulation of cells was done using recombinant TNF-α (200 U/ml) for 12 hours. Transfected cells were harvested at 36 hours, and CAT activity was assayed on 10 to 100 μg of protein from whole cell extracts. CAT assays were performed essentially as described in Leung, K. & Nabel, G. J. Nature 333, 776-778 (1988). To analyze the κB-reporter activity in MEFs, cells were transfected with the reporter (2×kB-Luc) and PRL-TK vector (Promega) using FuGENE6 transfection reagent (Roche). Luciferase activity was analyzed by Dual-Luciferase Reporter Assay System (Promega).
To determine whether PRMT-1, 2 or 3 could affect NF-κB function, their potential to regulate effects on transcription of the human immunodeficiency virus type 1 (HIV-1) was examined. Transient co-transfections were performed using PRMT1, PRMT2 and PRMT3 expression plasmids with an HIV-1 reporter plasmid in the human renal epithelial cell line, 293T.
To determine its dependence on NF-κB, human immunodeficiency virus type 1 (HIV-1) reporter plasmids with wild-type (WT) or mutant (ΔκB) sites were co-transfected transiently with control or PRMT2 expression plasmids in the different cell lines. […] The KB effect was dose-dependent and was also observed with other inducers of NF-κB, including phorbol […] (PMA) (FIG. 2B, right panel).

B1: PRMT2: human PRMT-2 polypeptide, SEQ ID NO:2, expressed from pVR1012 vector with HA-tag (protein, listed as Homo sapiens)
chain: MATSGDCPRSESQGEEPAECSEAGLLQEGVQPEEFVAIADYAATDETQLSFLRGEKILILRQTTADWWWGERAGCCGYIPANHVGKHVDEYDPEDTWQDEEYFGSYGTLKLHLEMLADQPRTTKYHSVILQNKESLTDKVILDVGCGTGIISLFCAHYARPRAVYAVEASEMAQHTGQLVLQNGFADIITVYQQKVEDVVLPEKVDVLVSEWMGTCLLFEFMIESILYARDAWLKEDGVIWPTMAALHLVPCSADKDYRSKVLFWDNAYEFNLSALKSLAVKEFFSKPKYNHILKPEDCLSEPCTILQLDMRTVQISDLETLRGELRFDIRKAGTLHGFTAWFSVHFQSLQEGQPPQVLSTGPFHPTTHWKQTLFMMDDPVPVHTGDVVTGSVVLQRNPVWRRHMSVALSWAVTSRQDPTSQKVGEKVFPIWR
modifications: HA tag
293T cells, expression plasmid co-transfected with HIV-1 reporter plasmid
  inhibition of HIV-1 transcription: about 50 fold
293 cells, basal and TNF-α-dependent
  HIV-1 transcription from wild-type reporter: significantly inhibited both basal and TNF-α-dependent HIV-1 transcription
